T1: Atg1 (S. cerevisiae, UniProt P53104 1-897, phosphothreonine at 226 (T226))
T1 construct: Atg1, S. cerevisiae BY4741, open reading frame from genomic DNA; also called full-length Atg1; Atg1–kinase; source: High Five (BTI-TN-5B1–4) insect cells, purified (Ni-NTA, SEC)
T1 sequence (looked up): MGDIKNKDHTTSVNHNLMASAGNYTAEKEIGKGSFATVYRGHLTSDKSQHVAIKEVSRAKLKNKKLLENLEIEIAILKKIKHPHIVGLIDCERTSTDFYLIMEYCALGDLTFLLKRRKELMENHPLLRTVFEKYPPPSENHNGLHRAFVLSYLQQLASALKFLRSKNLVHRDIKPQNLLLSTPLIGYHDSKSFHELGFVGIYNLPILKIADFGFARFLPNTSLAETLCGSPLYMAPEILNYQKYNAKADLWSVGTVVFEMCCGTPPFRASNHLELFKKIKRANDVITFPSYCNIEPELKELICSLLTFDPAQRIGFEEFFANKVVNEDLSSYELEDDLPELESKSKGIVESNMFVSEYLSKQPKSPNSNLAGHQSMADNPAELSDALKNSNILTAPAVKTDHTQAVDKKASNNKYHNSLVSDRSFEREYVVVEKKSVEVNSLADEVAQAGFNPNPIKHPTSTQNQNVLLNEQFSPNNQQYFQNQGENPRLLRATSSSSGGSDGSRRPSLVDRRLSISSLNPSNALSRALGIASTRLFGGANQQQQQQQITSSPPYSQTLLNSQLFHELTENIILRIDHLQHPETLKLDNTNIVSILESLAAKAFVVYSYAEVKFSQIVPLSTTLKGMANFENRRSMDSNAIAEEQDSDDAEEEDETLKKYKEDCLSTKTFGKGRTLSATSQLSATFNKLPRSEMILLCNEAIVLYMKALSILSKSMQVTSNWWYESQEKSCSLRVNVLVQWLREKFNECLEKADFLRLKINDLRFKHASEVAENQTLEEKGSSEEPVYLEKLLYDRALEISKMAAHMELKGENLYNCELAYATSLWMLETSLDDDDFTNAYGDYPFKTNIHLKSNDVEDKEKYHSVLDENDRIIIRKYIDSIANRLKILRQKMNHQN

T2: Atg9^core (Atg9^281–779), reconstituted in proteoliposomes (S. cerevisiae, UniProt Q12142 281-779)
T2 construct: Atg9, S. cerevisiae BY4741, conserved core region, residues 281–779; modified pET28a(+) vector; about 50% of the protein in the proteoliposomes has its cytoplasmic domains outside; liposomes of cholesterol, POPE, POPC, POPS, without PI; also called Atg9–PLs; Atg9-PL; source: E. coli Rosetta, solubilised in LDAO, purified (Ni-NTA, SEC), reconstituted in liposomes; not shown: His tag, C-terminal, …
T2 sequence (looked up): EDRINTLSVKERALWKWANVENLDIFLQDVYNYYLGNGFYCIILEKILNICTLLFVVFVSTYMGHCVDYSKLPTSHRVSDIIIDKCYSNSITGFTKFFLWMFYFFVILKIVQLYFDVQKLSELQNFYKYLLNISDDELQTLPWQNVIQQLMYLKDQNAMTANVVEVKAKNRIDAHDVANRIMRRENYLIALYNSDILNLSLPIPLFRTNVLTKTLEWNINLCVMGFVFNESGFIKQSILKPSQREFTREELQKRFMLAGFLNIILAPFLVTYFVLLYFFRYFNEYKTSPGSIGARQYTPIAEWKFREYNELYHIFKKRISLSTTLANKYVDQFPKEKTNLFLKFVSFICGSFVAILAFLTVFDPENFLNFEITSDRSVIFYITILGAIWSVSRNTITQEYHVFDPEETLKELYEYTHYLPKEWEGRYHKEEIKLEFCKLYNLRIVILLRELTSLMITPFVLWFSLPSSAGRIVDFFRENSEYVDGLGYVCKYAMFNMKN

B1: Atg13(P), Atg13 phosphorylated by Atg1 in vitro (natural protein, S. cerevisiae, UniProt Q06628 1-738, looked up)
chain: MVAEEDIEKQVLQLIDSFFLKTTLLICSTESSRYQSSTENIFLFDDTWFEDHSELVSELPEIISKWSHYDGRKELPPLVVETYLDLRQLNSSHLVRLKDHEGHLWNVCKGTKKQEIVMERWLIELDNSSPTFKSYSEDETDVNELSKQLVLLFRYLLTLIQLLPTTELYQLLIKSYNGPQNEGSSNPITSTGPLVSIRTCVLDGSKPILSKGRIGLSKPIINTYSNALNESNLPAHLDQKKITPVWTKFGLLRVSVSYRRDWKFEINNTNDELFSARHASVSHNSQGPQNQPEQEGQSDQDIGKRQPQFQQQQQPQQQQQQQQQQQRQHQVQTQQQRQIPDRRSLSLSPCTRANSFEPQSWQKKVYPISRPVQPFKVGSIGSQSASRNPSNSSFFNQPPVHRPSMSSNYGPQMNIEGTSVGSTSKYSSSFGNIRRHSSVKTTENAEKVSKAVKSPLQPQESQEDLMDFVKLLEEKPDLTIKKTSGNNPPNINISDSLIRYQNLKPSNDLLSEDLSVSLSMDPNHTYHRGRSDSHSPLPSISPSMHYGSLNSRMSQGANASHLIARGGGNSSTSALNSRRNSLDKSSNKQGMSGLPPIFGGESTSYHHDNKIQKYNQLGVEEDDDDENDRLLNQMGNSATKFKSSISPRSIDSISSSFIKSRIPIRQPYHYSQPTTAPFQAQAKFHKPANKLIDNGNRSNSNNNNHNGNDAVGVMHNDEDDQDDDLVFFMSDMNLSKEG
modifications: phosphoserine at 428, 429 and 496 and at several other positions (Supplementary Table 1)
notes: Atg13, S. cerevisiae BY4741; also called phosphorylated Atg13; source: E. coli Rosetta, purified; phosphorylated by adding ATP to fully assembled Atg1^PC
B2: Atg13 (natural protein, S. cerevisiae, UniProt Q06628 1-738, looked up)
chain: B1 chain
notes: Atg13, S. cerevisiae BY4741, open reading frame from genomic DNA; source: E. coli Rosetta, purified (Ni-NTA, anion exchange)
B3: Atg17 (natural protein, S. cerevisiae, UniProt Q06410 1-417, looked up)
chain: MNEADVTKFVNNARKTLTDAQLLCSSANLRIVDIKKKLSSWQLSISKLNFLIVGLRQQGKFLYTILKEGIGTKLIQKQWNQAVLVVLVDEMKYWQYEITSKVQRLDGIVNELSISEKDDTDPSKLGDYISRDNVNLLNDKLKEVPVIERQIENIKLQYENMVRKVNKELIDTKLTDVTQKFQSKFGIDNLMETNVAEQFSRELTDLEKDLAEIMNSLTQHFDKTLLLQDKKIDNDEREELFKVVQGDDKELYNIFKTLHEVIDDVDKTILNLGQFLQAKIKEKTELHSEVSEIINDFNRNLEYLLIFKDISNLIDSFKNSCTQDIQTTKELCEFYDNFEESYGNLVLEAKRRKDVANRMKTILKDCEKQLQNLDAQDQEERQNFIAENGTYLPETIWPGKIDDFSSLYTLNYNVKNP
notes: Atg17, S. cerevisiae BY4741, open reading frame from genomic DNA; expressed from pST39; also called full-length Atg17; Atg17-dimer; source: E. coli Rosetta, purified (Ni-NTA, SEC); not shown: His6, N-terminal, cleaved

Experiments:
Atg1 [1] = molecular target: T1, Atg1; test: SEC; ATP added to fully assembled Atg1^PC (Atg13, Atg29 and Atg1 become phosphorylated by Atg1); SEC and SDS–PAGE of the fractions; settings: both partners purified
Atg1 [2] = molecular target: T1, Atg1; test: SEC; complexes assembled from purified subunits or subcomplexes, 30 min at room temperature, then gel filtration on Superose 6; settings: both partners purified
Atg13 = molecular target: B2; test: as above; settings: both partners purified
[3] = molecular target: T2, Atg9^core (Atg9^281–779), reconstituted …; test: co-floatation with proteoliposomes; Atg9 variant held in proteoliposomes (synthetic lipids without PI), partner in solution at 1:1, Nycodenz step gradient, 650,000g 2 h at 4 °C, 25 mM HEPES pH 7.0, 100 mM NaCl; top fraction read by SDS–PAGE or α-myc immunoblot; settings: both partners purified
[4] = molecular target: the molecule itself; test: dynamic light scattering; Stokes radii (RH) of the purified proteins and complexes in solution

Binder: B1
- binding result (Atg1 [1]): binds

Binder: B2
- binding result (Atg1 [2]): binds

Binder: B3
- binding result (Atg13): binds
- binding result [3]: binds
- stoichiometry N [4]: 2

From article PMC4729957, “The Atg1–kinase complex tethers Atg9-vesicles to initiate autophagy” (Nature Communications, 2016)
